{
  "source": "paper PMC4176372",
  "about": "“The interplay of primer-template DNA phosphorylation status and single-stranded DNA binding proteins in directing clamp loaders to the appropriate polarity of DNA” (Nucleic Acids Research, 2014)",
  "molecules": {"B1": {"name": "PCNA-AF488_(2) (S. cerevisiae PCNA, C22/62/81S, I111C, I181C, labeled with AF488) (natural protein, UniProt P15873 1-258, looked up)", "chain": "MLEAKFEEASLFKRIIDGFKDSVQLVNFQCKEDGIIAQAVDDSRVLLVSLEIGVEAFQEYRSDHPVTLGMDLTSLSKILRSGNNTDTLTLIADNTPDSIILLFEDTKKDRCAEYSLKLMDIDADFLKIEELQYDSTLSLPSSEFSKIVRDLSQLSDSINIMITKETIKFVADGDIGSGSVCIKPFVDMEHPETSIKLEMDQPVDLTFGAKYLLDIIKGSSLSDRVGIRLSSEAPALFQFDLKSGFLQFFLAPKFNDEE", "modifications": "AF488 on the cysteines introduced at positions 111 and 181", "notes": "proliferating cell nuclear antigen (PCNA), the S. cerevisiae sliding clamp; also called fluorescent PCNA; source: purified as described previously"}, "B2": {"name": "PCNA-MDCC (S. cerevisiae PCNA, C22/62/81S, S43C, labeled with MDCC) (natural protein, UniProt P15873 1-258, looked up)", "chain": "B1 chain with S43C, C111I, C181I", "modifications": "MDCC on the cysteine introduced at position 43", "notes": "proliferating cell nuclear antigen (PCNA), the S. cerevisiae sliding clamp; source: purified as described previously"}},
  "key": {"[1]": {"biological_target": "replication protein A (RPA) (UniProt P22336)", "sequence (P22336 whole entry, chain 1 of 3)": "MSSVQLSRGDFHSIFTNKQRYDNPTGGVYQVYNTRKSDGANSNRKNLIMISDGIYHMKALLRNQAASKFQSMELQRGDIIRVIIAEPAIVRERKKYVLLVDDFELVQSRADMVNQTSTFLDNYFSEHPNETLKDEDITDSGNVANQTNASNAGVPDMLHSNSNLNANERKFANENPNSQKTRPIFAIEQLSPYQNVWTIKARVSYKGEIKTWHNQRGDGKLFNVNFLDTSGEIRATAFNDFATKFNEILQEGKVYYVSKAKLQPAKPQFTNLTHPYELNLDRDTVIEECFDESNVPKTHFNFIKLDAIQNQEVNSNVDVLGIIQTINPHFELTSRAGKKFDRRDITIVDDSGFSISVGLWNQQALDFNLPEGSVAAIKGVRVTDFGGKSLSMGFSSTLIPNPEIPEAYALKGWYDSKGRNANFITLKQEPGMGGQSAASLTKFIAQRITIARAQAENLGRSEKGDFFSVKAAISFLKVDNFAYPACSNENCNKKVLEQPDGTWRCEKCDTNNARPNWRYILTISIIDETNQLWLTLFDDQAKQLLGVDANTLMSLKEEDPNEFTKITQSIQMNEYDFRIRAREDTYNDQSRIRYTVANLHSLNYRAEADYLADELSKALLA", "sequence (P26754 whole entry, chain 2 of 3, further chain)": "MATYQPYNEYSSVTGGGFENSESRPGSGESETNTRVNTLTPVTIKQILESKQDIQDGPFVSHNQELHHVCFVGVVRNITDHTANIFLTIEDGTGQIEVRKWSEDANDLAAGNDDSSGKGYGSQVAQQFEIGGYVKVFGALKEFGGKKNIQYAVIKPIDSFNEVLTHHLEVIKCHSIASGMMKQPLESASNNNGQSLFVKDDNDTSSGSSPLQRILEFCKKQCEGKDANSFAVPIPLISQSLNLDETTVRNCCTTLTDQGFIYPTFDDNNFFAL", "sequence (P26755 whole entry, chain 3 of 3, further chain)": "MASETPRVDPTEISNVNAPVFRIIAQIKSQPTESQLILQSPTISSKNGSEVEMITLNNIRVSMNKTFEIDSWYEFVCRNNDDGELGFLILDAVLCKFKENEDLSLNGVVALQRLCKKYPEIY"}, "[2]": {"biological_target": "replication protein A (RPA) (UniProt P22336)", "remark": "listed apart in the source"}, "[3]": {"biological_target": "T1, Saccharomyces cerevisiae clamp loader replication factor C (RFC) with a full-length Rfc1 subunit (S. cerevisiae, UniProt P38630 1-861; P40348 1-353; P38629 1-340; P40339 1-323; P38251 1-354)", "T1 construct": "Rfc1 subunit of S. cerevisiae RFC; Rfc2 subunit of S. cerevisiae RFC; Rfc3 subunit of S. cerevisiae RFC; Rfc4 subunit of S. cerevisiae RFC; Rfc5 subunit of S. cerevisiae RFC; Pentamer of Rfc1-5; source: E. coli BL21 (DE3) Rosetta, expressed from a single plasmid, purified (HighTrap SP, HighTrap heparin, MonoQ); copies: 1 + 1 + 1 + 1 + 1", "test": "stopped-flow fluorescence (PCNA-AF488_2 clamp closing); sequential mixing: 20 nM RFC, 20 nM PCNA-AF488_2 and 0.5 mM ATP incubated 4 s, then mixed with 40 nM 5′DNA pre-bound to 400 nM RPA, ATP and 200 nM unlabeled PCNA; 20°C; 30 mM HEPES pH 7.5, 150 mM NaCl, 10 mM MgCl2, 10% glycerol, 100 mM maltose", "conditions": "both partners purified"}, "[4]": {"biological_target": "T1, Saccharomyces cerevisiae clamp loader …", "test": "stopped-flow fluorescence (PCNA-MDCC release from RFC); PCNA labeled with MDCC on the surface to which RFC binds; fluorescence of the RFC·PCNA-MDCC complex is greater than that of unbound PCNA-MDCC; release followed after mixing with DNA substrates with and without bound SSB/RPA; 20°C; single exponential fit", "conditions": "both partners purified"}},
  "note": "Where a chain is given by its changes, count along the chain named. Names may count otherwise.",
  "data": [
    {"molecule": "Saccharomyces cerevisiae clamp loader replication factor C (RFC) with a full-length Rfc1 subunit (from UniProt P38630 1-861; P40348 1-353; P38629 1-340; P40339 1-323; P38251 1-354) (complex)", "values": [
      {"measurement": "k obs1 of PCNA-AF488 2 closing by RFC on 3′DNA·RPA", "setting": "[1]", "value": 4.4, "unit": "s⁻¹"},
      {"measurement": "kobs of PCNA-AF488 2 closing by RFC on phosphorylated 5′DNA·RPA", "setting": "[1]", "value": 0.09, "unit": "s⁻¹"},
      {"measurement": "k obs1 of PCNA closing by RFC on 3′DNA with the non-cognate SSB substituted for RPA", "setting": "[2]", "value": 4.6, "unit": "s⁻¹"},
      {"measurement": "rate of PCNA closing by RFC on 5′DNA with the non-cognate SSB substituted for RPA", "setting": "[2]", "value": 0.45, "unit": "s⁻¹"}
    ]},
    {"molecule": "B1", "values": [
      {"measurement": "binding result", "setting": "[3]", "value": "binds"}
    ]},
    {"molecule": "B2", "values": [
      {"measurement": "binding result", "setting": "[4]", "value": "binds"}
    ]}
  ]
}
